# Read-outs that look alike come from different tables or passages of the source. Positions of bridges follow the written chain, without caps; N, C: chain ends. Non-standard residues stand in square brackets, D forms with d. Residues, ends and D or L forms follow the SMILES beside them. Groups on a side chain read outwards from the residue. No end group written: not given here. *: point of attachment. Docosanoyl = CCCCCCCCCCCCCCCCCCCCCC(=O)*; Phe(4-NH2) = Nc1ccc(C[C@H](N)C(=O)O)cc1; PhLac = O=C(O)[C@@H](O)Cc1ccccc1; Aib = CC(C)(N)C(=O)O; Sar = CNCC(=O)O
# T1: GIP receptor (UniProt P48546 22-466)
# T1 sequence (looked up): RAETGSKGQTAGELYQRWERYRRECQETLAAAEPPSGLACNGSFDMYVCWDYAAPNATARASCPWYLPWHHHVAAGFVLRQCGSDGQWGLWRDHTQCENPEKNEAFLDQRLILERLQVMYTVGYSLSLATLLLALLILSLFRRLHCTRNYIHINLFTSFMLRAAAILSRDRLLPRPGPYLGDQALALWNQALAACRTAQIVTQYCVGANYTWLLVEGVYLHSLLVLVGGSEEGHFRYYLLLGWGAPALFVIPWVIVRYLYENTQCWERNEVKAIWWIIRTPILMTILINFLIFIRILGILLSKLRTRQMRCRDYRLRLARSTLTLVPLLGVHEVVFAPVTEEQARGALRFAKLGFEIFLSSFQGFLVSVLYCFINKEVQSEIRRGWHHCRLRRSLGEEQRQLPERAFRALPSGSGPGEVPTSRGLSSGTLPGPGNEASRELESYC
# Experiments:
# [1] = molecular target: T2, GLP-1 receptor (Homo sapiens, UniProt P43220); assay: cell-based or functional assay
# [2] = molecular target: glucagon receptor (UniProt P47871); assay: cell-based or functional assay
# [3] = molecular target: glucagon receptor (UniProt P47871); assay: cell-based or functional assay; remark: listed apart in the source
# [4] = molecular target: T2, GLP-1 receptor; assay: cell-based or functional assay; remark: listed apart in the source
# [5] = type: physicochemical; conditions: buffer
# Procedure: Preliminary analyses were performed with these crude peptides for an approximation of their relative conversion rates in Phosphate Buffered Saline (PBS) buffer (pH, 7.2) using high performance liquid chromatography (HPLC) and MALDI analysis. The crude peptide samples were dissolved in the PBS buffer at a concentration of 1 mg/mL. […] Aliquots of 100 μL were drawn out at various time intervals, cooled to room temperature and analyzed by HPLC. […] The peptides described above were incubated in PBS buffer or serum at 37° C. for up to 8 days. Samples were collected at different time points for PBS and plasma and half-life was determined. […] The peptides described above were incubated in PBS buffer or serum at 37° C. for up to 8 days. Samples were collected at different time points for PBS and plasma and half-life was determined. […] The shorter half-life seen when the acylated dipeptide was linked to […] might be due to a conformational change that facilitates cleavage when bound to plasma or alternatively to reduced detection of the acylated form when bound to plasma.
# [6] = type: in vitro ADME
# Procedure: The peptides described above were incubated in PBS buffer or serum at 37° C. for up to 8 days. Samples were collected at different time points for PBS and plasma and half-life was determined. […] The peptides described above were incubated in PBS buffer or serum at 37° C. for up to 8 days. Samples were collected at different time points for PBS and plasma and half-life was determined. […] The shorter half-life seen when the acylated dipeptide was linked to […] might be due to a conformational change that facilitates cleavage when bound to plasma or alternatively to reduced detection of the acylated form when bound to plasma.
# [7] = tested on: diet induced obesity (DIO) mice; assay: In vivo effects in DIO mice, single injection (Example 4); set-up: species or system mice (strain: C57B16); conditions: single s.c. injection, lower dose (10 nmol/kg), Day 0-5
# Procedure: The Peptide D prodrug described in Example 3 was tested for its in vivo effects in diet induced obesity (DIO) mice (strain: C57B16). Nine groups of eight mice (with an initial average body weight of 50 g) were subcutaneously injected with vehicle only or 10 nmol/kg or 50 nmol/kg of a Peptide D acylated prodrug of Example 3, the parent peptide (i.e., Peptide D lacking an acylated dipeptide prodrug moiety), Peptide D with an acylated lysine residue linked directly the 4-amino phenylalanine at position 10, or the following peptide: YAib[…](γEγE-C16)[…]ib[…] (SEQ ID NO: 3082) (Peptide F). The mice were 6 months old and had been on a high fat diet for approximately 2 months. Body weight was monitored for a week following injection and was measured on Day 0, 1, 2, and 5, wherein Day 0 was the day of injection (FIG. 2).
# [8] = tested on: diet induced obesity (DIO) mice; assay: In vivo effects of acyl chain length variants in DIO mice, single injection (Example 5); set-up: species or system mice (strain: C57B16); conditions: single s.c. injection, 10 nmol/kg, Day 0-7
# Procedure: The Peptide D variants described above were also tested for their in vivo effects in diet induced obesity (DIO) mice (strain: C57B16). Nine groups of eight mice (with an initial average body weight of 50 g) were subcutaneously injected with vehicle only, or 10 nmol/kg of a Peptide D with C18 acylation via the dipeptide prodrug moiety (as described in Example 3), the parent peptide (i.e., Peptide D lacking acylation and lacking a dipeptide prodrug moiety), Peptide D with a C18 acyl group linked directly to the 4-amino phenylalanine at position 10, a Peptide D with C20 acylation via the dipeptide prodrug moiety, Peptide D with a C20 acyl group linked directly to the 4-amino phenylalanine at position 10, a Peptide D with C22 acylation via the dipeptide prodrug moiety, and Peptide D with a C22 acyl group linked directly to the 4-amino phenylalanine at position 10. The mice were 6 months old and had been on a high fat diet for approximately 2 months. Body weight was monitored for a week following injection and was measured on Day 0, 1, 2, 5, and 7 wherein Day 0 was the day of injection (FIG. 3A, 3B).
# [9] = molecular target: T3, GLP-1 receptor (UniProt P43220 24-463, limits assumed); assay: cell-based or functional assay
# [10] = molecular target: T1, GIP receptor; assay: cell-based or functional assay
# [11] = molecular target: T4, glucagon receptor (UniProt P47871 26-477, limits assumed); assay: cell-based or functional assay
# [12] = molecular target: T3, GLP-1 receptor; assay: cell-based or functional assay; remark: listed apart in the source
# [13] = molecular target: T4, glucagon receptor; assay: cell-based or functional assay; remark: listed apart in the source
# [14] = molecular target: T3, GLP-1 receptor; assay: cell-based or functional assay; remark: listed apart in the source
# T2 sequence (P43220 24-463 limits assumed): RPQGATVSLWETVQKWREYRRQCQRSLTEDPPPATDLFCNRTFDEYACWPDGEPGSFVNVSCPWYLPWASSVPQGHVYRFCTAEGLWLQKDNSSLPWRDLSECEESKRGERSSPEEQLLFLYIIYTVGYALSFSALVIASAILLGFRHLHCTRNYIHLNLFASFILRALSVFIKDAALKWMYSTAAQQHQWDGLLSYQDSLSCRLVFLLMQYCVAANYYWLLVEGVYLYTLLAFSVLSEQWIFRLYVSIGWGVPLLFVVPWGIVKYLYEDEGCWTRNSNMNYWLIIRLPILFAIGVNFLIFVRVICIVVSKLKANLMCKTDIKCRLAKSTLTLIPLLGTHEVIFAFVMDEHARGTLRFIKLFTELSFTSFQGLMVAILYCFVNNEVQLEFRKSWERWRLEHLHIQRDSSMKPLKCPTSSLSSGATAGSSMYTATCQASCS
# Chain of glucagon receptor (UniProt P47871) (P47871 26-477 limits assumed): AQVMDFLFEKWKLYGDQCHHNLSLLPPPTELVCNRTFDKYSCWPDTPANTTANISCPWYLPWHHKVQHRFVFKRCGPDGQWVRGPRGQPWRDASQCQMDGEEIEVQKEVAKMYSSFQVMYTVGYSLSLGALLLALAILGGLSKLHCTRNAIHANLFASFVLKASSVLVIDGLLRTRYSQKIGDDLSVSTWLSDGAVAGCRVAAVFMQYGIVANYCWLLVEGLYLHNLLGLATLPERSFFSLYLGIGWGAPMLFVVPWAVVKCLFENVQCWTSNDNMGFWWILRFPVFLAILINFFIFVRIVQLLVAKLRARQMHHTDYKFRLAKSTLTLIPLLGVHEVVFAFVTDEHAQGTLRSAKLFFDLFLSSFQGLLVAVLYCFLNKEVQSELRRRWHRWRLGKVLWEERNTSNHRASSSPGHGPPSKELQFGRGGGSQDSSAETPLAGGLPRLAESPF
# T4 sequence (P47871 26-477 limits assumed): as above
molecule,measurement,setting,value
"E9, K12E16(lactam) glucagon(6-39) Cex peptide (Table 1 peptide 2)",GLP-1 EC50,[1],63 nM
same,Glu IC50,[2],2010 nM
same,Glucagon IC50,[3],2010 nM
"E9, E16K20(lactam) glucagon(6-39) Cex peptide (Table 1 peptide 3)",Glu IC50,[2],42 nM
same,GLP-1 EC50,[4],36 nM
same,Glucagon IC50,[3],42 nM
CCCCCCCCCCCCCCCCCCCCCC(=O)NCCCC[C@@H](N)C(=O)N(C)CC(=O)NCCCC[C@H](NC(=O)[C@H](CO)NC(=O)[C@@H]1CCCN1C(=O)[C@@H]1CCCN1C(=O)[C@@H]1CCCN1C(=O)[C@H](C)NC(=O)CNC(=O)[C@H](CO)NC(=O)[C@H](CO)NC(=O)[C@@H]1CCCN1C(=O)CNC(=O)CNC(=O)[C@H](C)NC(=O)[C@H](CC(C)C)NC(=O)[C@H](CC(C)C)NC(=O)[C@H](Cc1c[nH]c2ccccc12)NC(=O)[C@H](CC(N)=O)NC(=O)[C@@H](NC(=O)[C@H](Cc1ccccc1)NC(=O)[C@H](CCC(=O)O)NC(=O)C(C)(C)NC(=O)[C@H](C)NC(=O)[C@H](C)NC(=O)[C@H](CCC(N)=O)NC(=O)[C@H](CCCCN)NC(=O)[C@H](CC(=O)O)NC(=O)[C@H](CC(C)C)NC(=O)[C@H](Cc1ccc(O)cc1)NC(=O)[C@@H](NC(=O)[C@H](CO)NC(=O)[C@H](Cc1ccc(O)cc1)NC(=O)[C@H](CC(=O)O)NC(=O)[C@H](CO)NC(=O)[C@@H](NC(=O)[C@H](Cc1ccccc1)NC(=O)[C@@H](NC(=O)CNC(=O)[C@H](CCC(=O)O)NC(=O)C(C)(C)NC(=O)[C@@H](N)Cc1ccc(O)cc1)[C@@H](C)O)[C@@H](C)O)[C@@H](C)CC)C(C)C)C(=O)O [Peptide H],half-life,[5],~120 h
same,half-life,[6],~120 h
"D9, K12E16(Lactam) glucagon(6-39) Cex peptide (Table 1 peptide 4)",GLP-1 EC50,[1],119 nM
same,Glu IC50,[2],828 nM
same,GLP-1 EC50,[4],18 nM
same,Glucagon IC50,[3],828 nM
CC[C@H](C)[C@H](NC(=O)[C@H](CO)NC(=O)[C@H](Cc1ccc(N)cc1)NC(=O)[C@H](CC(=O)O)NC(=O)[C@H](CO)NC(=O)[C@@H](NC(=O)[C@H](Cc1ccccc1)NC(=O)[C@@H](NC(=O)CNC(=O)[C@H](CCC(=O)O)NC(=O)C(C)(C)NC(=O)[C@@H](N)Cc1ccccc1)[C@@H](C)O)[C@@H](C)O)C(=O)N[C@@H](Cc1ccc(O)cc1)C(=O)N[C@@H](CC(C)C)C(=O)N[C@@H](CC(=O)O)C(=O)N[C@@H](CCCCN)C(=O)N[C@@H](CCC(N)=O)C(=O)N[C@@H](C)C(=O)N[C@@H](C)C(=O)NC(C)(C)C(=O)N[C@@H](CCC(=O)O)C(=O)N[C@@H](Cc1ccccc1)C(=O)N[C@H](C(=O)N[C@@H](CC(N)=O)C(=O)N[C@@H](Cc1c[nH]c2ccccc12)C(=O)N[C@@H](CC(C)C)C(=O)N[C@@H](CC(C)C)C(=O)N[C@@H](C)C(=O)NCC(=O)NCC(=O)N1CCC[C@H]1C(=O)N[C@@H](CO)C(=O)N[C@@H](CO)C(=O)NCC(=O)N[C@@H](C)C(=O)N1CCC[C@H]1C(=O)N1CCC[C@H]1C(=O)N1CCC[C@H]1C(=O)N[C@@H](CO)C(N)=O)C(C)C [Peptide D] (H-F[Aib]EGTFTSD[Phe(4-NH2)]SIYLDKQAA[Aib]EFVNWLLAGGPSSGAPPPS-NH2; N-terminus and C-terminus assumed),half-life,[5],~24 h
same,half-life,[6],~24 h
same,Body weight,[7],decline in weight through day 2 before weight began to increase slightly
same,Body weight,[8],caused the most weight loss
CCCCCCCCCCCCCCCCCCCCCC(=O)NCCCC[C@@H](N)C(=O)N(C)CC(=O)NCCCC[C@H](NC(=O)[C@H](CC(=O)O)NC(=O)[C@H](CC(C)C)NC(=O)[C@H](Cc1ccc(O)cc1)NC(=O)[C@@H](NC(=O)[C@H](CO)NC(=O)[C@H](Cc1ccc(O)cc1)NC(=O)[C@H](CC(=O)O)NC(=O)[C@H](CO)NC(=O)[C@@H](NC(=O)[C@H](Cc1ccccc1)NC(=O)[C@@H](NC(=O)CNC(=O)[C@H](CCC(=O)O)NC(=O)C(C)(C)NC(=O)[C@@H](N)Cc1ccc(O)cc1)[C@@H](C)O)[C@@H](C)O)[C@@H](C)CC)C(=O)N[C@@H](CCC(N)=O)C(=O)N[C@@H](C)C(=O)N[C@@H](C)C(=O)NC(C)(C)C(=O)N[C@@H](CCC(=O)O)C(=O)N[C@@H](Cc1ccccc1)C(=O)N[C@H](C(=O)N[C@@H](CC(N)=O)C(=O)N[C@@H](Cc1c[nH]c2ccccc12)C(=O)N[C@@H](CC(C)C)C(=O)N[C@@H](CC(C)C)C(=O)N[C@@H](C)C(=O)NCC(=O)NCC(=O)N1CCC[C@H]1C(=O)N[C@@H](CO)C(=O)N[C@@H](CO)C(=O)NCC(=O)N[C@@H](C)C(=O)N1CCC[C@H]1C(=O)N1CCC[C@H]1C(=O)N1CCC[C@H]1C(=O)N[C@@H](CO)C(=O)O)C(C)C [Peptide G],half-life,[5],> 168 h
same,half-life,[6],> 168 h
"[PLA6, E9, K12E16(Lactam)] glucagon(6-39) Cex peptide (Table 1 peptide 5)",Glu IC50,[2],72 nM
same,GLP-1 EC50,[4],6 nM
same,Glucagon IC50,[3],72 nM
Y[Aib]EGTFTSDYSIYLDKQAA[Aib]EFVNWLLAGGPSSGAPPPSK([Sar-dK-Docosanoyl])-NH2 [Peptide H with C22-acylated (d)Lysine-sarcosine dipeptide on Lysine at position 40],"EC50-GLP, relative activity to GLP-1 standard",[9],37.1%
same,"EC50-GIP, relative activity to GIP standard",[10],81.6%
"[PhLac]TSDYSKYLDERRAKDFVQWLMDT (lactam 11-15) [[PLA6, D9, E16K20(lactam), D28]G(6-29) (Table 2 peptide 1)]",Glucagon IC50,[11],10 to 30 nM
same,GLP-1 EC50,[12],4 nM
same,Glucagon IC50,[13],6 nM
Y[Aib]EGTFTSDYSIYLDK([Sar-dK-C22 acyl])QAA[Aib]EFVNWLLAGGPSSGAPPPS-NH2 [Peptide G with C22-acylated (d)Lysine-sarcosine dipeptide on Lysine at position 16],"EC50-GLP, relative activity to GLP-1 standard",[9],24.7%
same,"EC50-GIP, relative activity to GIP standard",[10],58.5%
"[PhLac]TSDYSKYLDERRAQDFVQWLMDT (lactam 7-11; not fully specified) [[PLA6, D9, K12E16(Lactam), D28]G(6-29) (Table 2 peptide 2)]",GLP-1 EC50,[14],177 nM
same,Glucagon IC50,[11],63 nM
same,GLP-1 EC50,[12],21 nM
same,Glucagon IC50,[13],13 nM
Y[Aib]EGTFTSDYSK([Sar-dK-C22 acyl])YLDKQAA[Aib]EFVNWLLAGGPSSGAPPPS-NH2 [Peptide F of Example 8 with C22-acylated (d)Lysine-sarcosine dipeptide on Lysine at position 12],"EC50-GLP, relative activity to GLP-1 standard",[9],17.4%
same,"EC50-GIP, relative activity to GIP standard",[10],30.2%

# Reference: patent US20160058881A1, “PRODRUGS WITH PROLONGED ACTION” (INDIANA UNIVERSITY RESEARCH AND TECHNOLOGY CORPORATION, priority 2013, published 2016)
